B1: SLC19A2 (parent)
chain: FHHIPSTCQRVNGIKVQNGGIVTD

Variants of: B1
Experiment: protein stability index of a GFP-peptide fusion (GPS, HEK-293T) (PSI 1-6); higher = more stable
Details: c terminus: a fixed tail appended
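Further: lentivirally expressed fusions sorted by FACS into six bins by GFP to DsRed ratio, PSI derived from sequencing read proportions per bin multiplied by bin number.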

Protein stability index, by site and new letter:
P5: T 2.67; V 1.91; W 2.91; Y 2.33
S6: A 2.17; C 2.27; D 2.28; E 2.22; F 2.69; G 1.93; H 2.02; I 1.71; K 1.86; L 2.36; M 1.92; N 1.6; P 1.82; Q 2.32; R 1.9; T 1.6; V 2.07; W 3.58; Y 2.01
T7: A 1.39; C 2.21; D 2.58; E 2.32; F 3.29; G 1.57; H 2.3; I 1.45; K 2.23; L 2.59; M 2.03; N 2.42; P 1.91; Q 1.83; R 1.77; S 2.31; V 2; Y 1.91
C8: A 2.36; D 2.38; E 2.18; F 1.97; G 2.07; H 2.13; I 1.99; K 1.83; L 2.3; M 2.39; N 2.69; P 1.94; Q 1.97; R 3.48; S 2.27; T 2.84; V 2.3; W 1.93; Y 1.86
Q9: A 1.46; C 2.13; D 1.8; E 2.29; F 2.35; G 1.68; H 1.78; I 1.65; K 1.55; L 2.92; M 2.27; N 2.08; P 1.81; R 1.77; S 1.67; T 1.84; V 2.04
R10: A 1.81; C 2.36; D 2.65; E 2.46; F 1.7; G 2.23; H 2.5; I 1.98; K 1.91; L 2.46; M 1.67; N 1.6; P 1.78; Q 1.87; S 1.89; T 1.99; V 2.46; W 2.97; Y 2.07
V11: A 2.25; C 1.49; D 2.42; E 2.08; F 1.81; G 2.19; H 1.83; I 2.43; K 2.11; L 1.59; M 2.26; N 2.49; P 2.54; Q 2.48; R 3.19; S 1.93; T 2.04; W 1.44; Y 2.09
N12: A 1.84; C 1.84; D 2.86; E 2.04; F 1.74; G 2.07; H 1.89; I 1.42; K 2.22; L 2.1; P 2.05; Q 2.43; R 2.47; S 2.36; T 1.78; V 1.82; W 1.01; Y 1.78
G13: A 1.77; C 1.89; D 2; E 2.13; F 1.71; H 1.64; I 1.75; K 2.5; L 1.58; M 2.08; N 2.01; P 1.85; Q 2.73; R 2.21; S 1.97; T 2.28; V 1.73; Y 2.19
I14: A 2.2; C 1.72; D 1.88; E 2.69; F 2.32; G 2.6; H 2.31; K 2.19; L 2; M 2.23; N 2.07; P 2.19; Q 2.14; R 2.18; S 2.62; T 2.17; V 1.69; W 2.7; Y 1.47
K15: A 1.91; C 2.2; D 2.57; E 2.22; F 2.49; G 2.38; H 2.37; I 2.14; L 2.15; M 1.64; N 2.05; P 2.33; Q 2.47; R 2.2; S 2.24; T 2.19; V 2.14; Y 2.47
V16: A 2.13; C 2.2; D 2.31; E 1.49; F 1.6; G 2.13; H 2.15; I 1.51; K 2.02; L 1.79; M 2.44; N 1.96; P 2.14; Q 1.56; R 1.93; S 2.26; T 1.89; W 2.14; Y 1.95
Q17: A 1.89; C 2.37; D 2.05; E 2.28; F 1.41; G 1.87; H 2.08; I 1.6; K 2.66; L 1.34; M 1.09; N 2.17; P 2.35; R 2.81; S 2.72; T 1.67; V 2.1; W 1.62; Y 2.31
N18: A 1.77; C 1.52; D 1.81; E 2.01; F 2.04; G 3.96; I 2.94; K 1.68; L 1.28; M 1.98; P 2.08; Q 1.48; R 2.14; S 1.92; T 1.65; Y 1.63
G19: A 1.65; C 2.34; D 2.36; E 2.81; F 2.25; H 1.59; I 3.46; K 1.94; L 1.72; M 1.27; N 2.37; P 2.04; Q 2.16; R 1.65; S 1.51; T 2.78; V 2.32; W 1.62; Y 1.74
G20: A 1.59; C 1.8; D 2.2; E 1.95; F 1.65; H 2.19; I 1.9; K 1.87; L 1.64; M 2.18; N 2.29; P 2.2; Q 1.8; R 1.73; S 2.34; T 1.76; V 1.5
I21: A 2.46; C 1.79; D 2.24; E 2.15; F 1.83; G 2.2; H 2.09; K 3.06; L 1.61; M 2.03; N 3.07; P 1.6; Q 2.16; R 2.43; S 1.85; T 2.19; Y 2.18
V22: A 2.44; C 1.61; D 2.42; E 1.84; F 3.33; G 1.56; H 2.01; I 1.73; K 1.77; L 2.2; M 1.52; N 2.23; P 2.62; Q 2.18; R 2.19; S 2.23; T 2.52; W 1.91; Y 1.47
T23: A 2.4; C 2.27; D 2.53; E 1.85; F 1.81; G 1.67; H 3.31; I 1.57; K 2.11; L 1.95; M 2.15; N 1.86; P 1.89; Q 2.44; R 4.73; S 2.18; V 1.67; W 1.45; Y 1.75
D24: A 2.16
